From patent publication US12018068B2, “Anti-O1 antibodies and uses thereof” (priority 2016, dated 2024)

B1: KPE33 H32+L2016(1EQ): further optimized variant of KPE33v2016, VH SEQ ID NO:61, VL SEQ ID NO:63 (antibody, V domains shown)
VH: QVQLVESGGGLVQPGRSLRLSCAASGFIFDDYAIHWVRQAPGKGLEWVSGIAYKSGATNYAESVKGRFTISRDQSKNSLYLQMNSLRAEDTALYYCTRRRASGDNTFYYFDYWGQGTLVTVSS
VL: QIVLTQSPATLSLSPGERATLSCRASQNVNTNLAWYQQKPGQAPRLLIYDASNRATGIPARFSGSGSGTDFTLTISSLEPEDFAVYYCQQTTNWRYTFGQGTKLEIK
B2: KPE33 H33+L2016(1EQ): further optimized variant of KPE33v2016, VH SEQ ID NO:62, VL SEQ ID NO:63 (antibody, V domains shown)
VH: QVQLVESGGGLVQPGRSLRLSCAASGFIFDDYAIHWVRQAPGKGLEWVSGIAYKSGATNYAESVKGRFTISRDQSKKSLYLQMNSLRAEDTALYYCTRRRASGDNTFYYFDYWGQGTLVTVSS
VL: QIVLTQSPATLSLSPGERATLSCRASQNVNTNLAWYQQKPGQAPRLLIYDASNRATGIPARFSGSGSGTDFTLTISSLEPEDFAVYYCQQTTNWRYTFGQGTKLEIK

Tests used:
O1 LPS = experiment: Octet binding affinity to O1 LPS; design: species or system Klebsiella pneumoniae; conditions: average, from on-rate and off-rate, read-out: affinity constant (KD) to O1 LPS
Excerpt: In order to reduce potential sequence liabilities for antibody development including potential immunogenicity due to anti-drug antibodies, an unpaired Cysteine in the light chain CDR3 of KPE33 was exchanged with Threonine (T), and somatic mutations in the frameworks 1, 2, and 4 of KPE33 were replaced with germ line residues (as summarized in FIG. 5). CDRs were maintained as wildtype, except for the C107T substitution described above. The optimized KPE33 was named KPE33v2016. […] This platform provides a powerful tool to measure the rate of biomolecular complex formation and complex stability in a more biologically meaningful setting. Briefly, Protein A coated sensors were coated with 2 μg/mL O1 LPS for 10 minutes before being dipped into solution containing 0.2 μg/mL anti-O1 LPS mAbs in Kinetics buffer (ForteBio, dilute 10× to 1× with PBS). Changes in the number of molecules bound to the biosensor caused a shift in the interference pattern that was recorded in real time. […] The affinity constant (KD) of KPE33 and KPE33v2016 to O1 LPS was calculated based on the on-rate and off-rate from Octet sensorgram.
KPE33v2016 was further optimized, thereby creating two new variants—KPE33 H32+L2016(1EQ) and KPE33 H33+L2016(1EQ). Both of these variants contain a Methionine to Isoleucine mutation adjacent to CDRH1, a Tryptophan to Tyrosine mutation in CDRH2, an Aspartate to Glutamate mutation adjacent to CDRH2, Asparagine to Glutamine and Methionine to Leucine mutations in FRH3 and an Aspartate to Asparagine mutation in CDRH3. In addition, KPE33 H32+L2016(1EQ) had four FRH3 residues changed to the germ-line residues, whereas KPE33 H33+L2016(1EQ) only has three of the same FRH3 residues changed to the germ-line. Both of these variants contain the same light chain as KPE33v2016, but with a single Glutamate to Glutamine mutation in residue 1.

[1] = tested on: K. pneumoniae carbapenem-resistant (CRE) strain Kp1131115 (O1); experiment: acute lethal pneumonia model, survival; type: in vivo, Klebsiella pneumoniae; conditions: C57BL/6 mice, antibody one hour post bacterial challenge, vs human IgG1 control (R347)
Procedure: (§1) In an acute pneumonia model, C57BL/6 mice were inoculated intranasally with 1e4 to 1e8 CFU of the multi-drug resistant Klebsiella pneumoniae carbapenam resistant (CRE) clinical isolate strain KP1131115 (O1). Anti-K. pneumoniae monoclonal antibody KPE33 at 0.2, 1, and 5 mg/kg and human IgG1 control antibody at 5 mg/kg were given one hour post bacterial challenge (therapeutic dosing). Mouse survival was monitored daily until up to day 8.
as §1, with “Additionally, in an” for “In an”, “monoclonal antibodies […] and […]” for “monoclonal antibody KPE33”, “at 0.2” for “at 0.2, 1,”, “and 1” for “and 5”
KPE33 or KPE33-V-2016 were administered at a dose of 6 mg/kg 1 hour post bacterial infection with a Klebsiella pneumoniae carbapenam resistant strain.

| Molecule | Kd (O1 LPS) | survival, lethal pneumonia Kp1131115 [1] | survival, lethal pneumonia Kp1131115 ([1]; listed as KPE33-H32+L2016(EQ1)) |
| --- | --- | --- | --- |
| B1 | 4.46 nM | dose dependently enhanced survival | protect mice from lethal bacterial challenge |
| B2 | 5.01 nM | dose dependently enhanced survival |  |
